Among the data in the RNAGym collection of RNA variant scans (doi:10.7554/elife.80360) are self-cleavage values, retold here.

First the molecules themselves.
B1: Hammerhead Ribozyme (parent)
chain: ACCGGAUGUGCUUUCCGGUCUGAUGAGUCCGUGAGGACGAAACAG

This series covers variants of B1. The experiment in a line: self-cleavage, relative activity (ratio to wild type); higher = more cleavage; co-transcriptional.
On to G22U A23U, for which the self-cleavage worked out at 0.307. For G17U C43U the value was 0.379; for C3G C15U, 0.231; for A6C C15G, 0.559.

C2U U14G: the self-cleavage was 1.11. For A26U G35U the value was 0.491; for U24A G35A, 0.873. For A26G G39U the value was 0.343. For A26U G27U the value was 0.315. With U19A, the self-cleavage turned out to be 0.391. In the case of U19G, the self-cleavage was 0.437. For U9C C29U the value was 0.831.

Consider U21G C43G, for which the self-cleavage was 0.324.

Turning to C29A A42G, the self-cleavage turned out to be 0.265. The same measure for G17A C43G: 0.441. For U19G G35C the value was 0.308. The same measure for G39C: 0.455. As to G39A, the self-cleavage came out at 0.347. For A1G U32A the value was 1.68; for U13A C43G, 0.335; for U32A A44U, 0.633. For U9C C15U, the self-cleavage was found to be 0.863. Regarding U9A G45A, the self-cleavage was 0.707. Consider U9A G45C, for which the self-cleavage came to 0.609.

With A6C U32A, the self-cleavage came to 0.901. The same measure for U32C A41C: 0.294. The same measure for U13G A41C: 0.348; for G22U C38U: 0.335. For C15A G39U the value was 0.353. On to C30G A44U, for which the self-cleavage stood at 0.367. For G4C U32C the value was 0.736; for G33A G36U, 0.613. The same measure for U28A G36C: 0.396. For C11U C16A the value was 0.886; for G31C, 0.96. In the case of C3U A42U, the self-cleavage is 0.38.

Consider A23U C43G, for which the self-cleavage amounted to 0.356. As to G5C C38G, the self-cleavage was 0.278. With U28A G31C, the self-cleavage worked out at 0.919. For G4A U13A the value was 1.01; for U28C G36A, 0.634. For C11G U24A the value was 0.829; for A6C C11G, 0.958. The same measure for C3G C29A: 0.324. With G33U A44U, the self-cleavage stood at 0.87. Turning to A23C G31U, the self-cleavage came out at 0.647. For A40C G45U the value was 0.431; for G10C C30G, 0.675; for C38U A40C, 0.598. In the case of C11U G33A, the self-cleavage was determined as 0.95. Consider U28C A41G, for which the self-cleavage was 0.364. The same measure for G25C A34C: 0.29; for G8A G45A: 0.704.

As for U28C G33U, the self-cleavage was found to be 0.973. The same measure for C15U A41C: 0.368; for G18C A37G: 0.398. For A23G C43G the value was 0.35; for A23G C43A, 0.304; for U21A A26C, 0.299. For C2U G39U the value was 0.359; for C11U G18U, 0.469; for C11G U14C, 0.867. For the variant G4A G5A, the self-cleavage was 0.54. On to U19C G25C, for which the self-cleavage was found to be 0.378. The same measure for A1C U7A: 0.29; for U12C G22A: 0.36. For C3G C11G the value was 0.647; for U12A U14C, 0.946. For G31U A44G the value was 1.64; for G5C A37U, 0.238.

Consider G4U U28A, for which the self-cleavage came to 0.234. The same measure for A26C G45A: 0.304. The same measure for U7G U14C: 0.944; for C11A G22A: 0.348. For U19G A37U the value was 0.339; for G18C U28C, 0.263; for U13C G17U, 0.884.

For G22U U28A, the self-cleavage is 0.326. The same measure for G31U G35C: 0.654; for C3A A6C: 0.335.

In the case of U9A C20A, the self-cleavage is 0.438. For G4A C30G, the self-cleavage was 0.368. For A26G A41C the value was 0.338; for U19G G33U, 0.411; for U19G G33C, 0.426.

For A1U C30G, the self-cleavage amounted to 0.414. In the case of G5U G18C, the self-cleavage was 0.33. For C3U A40G, the self-cleavage was 0.34. For G31U A42U the value was 0.295; for C15G A42U, 0.328; for C15G A42C, 0.277. The same measure for A6U G27U: 0.395; for C38G C43U: 0.393; for G8U A42G: 0.367. For U13A U14G the value was 1.16; for C29U C30G, 0.546; for A1C G39C, 0.344. On to A1C G39U, for which the self-cleavage came out at 0.341. For C16A A44C the value was 0.563; for U9C G10C, 1.07; for A41C G45U, 0.41.

Take U24A: the self-cleavage stood at 1.03. For G25C C30U the value was 0.314; for U19A G39U, 0.29; for C30G A42G, 0.316.

For the variant C30A A44C, the self-cleavage was determined as 0.317.

Consider A26G A40G, for which the self-cleavage is 0.328. For U14A C38A the value was 0.54; for G4C A6C, 0.251. The same measure for C2A G36A: 0.353. For C15A G18C the value was 0.364. Regarding C20A A40G, the self-cleavage is 0.326. For U21A G35A the value was 0.52. For G18C U21G the value was 0.285; for U24G C30G, 0.727; for U24G C30U, 0.996.

Regarding U7A U32A, the self-cleavage is 1.38. The same measure for G5C C11U: 0.336; for C29A C43U: 0.396; for C16A G18C: 0.341.

On to U13G G45U, for which the self-cleavage came out at 0.702.

In the case of G4A U28G, the self-cleavage is 0.341.

In the case of U9G G35C, the self-cleavage is 0.562. For U7G C16G the value was 0.765; for G5U G22A, 0.269. The same measure for C3A G8C: 0.467; for G10U G31A: 0.989. The same measure for U21G A23G: 0.387; for C11U C29A: 0.329; for A34U A44G: 1.01.

C20U A42C: the self-cleavage stood at 0.323. The same measure for A42G C43A: 0.309; for C20U C30A: 0.464; for C20U C30U: 0.594. The same measure for G4C U7A: 1.03; for A26U C29U: 0.598; for U13G G18A: 0.642.

For the variant A1G C20A, the self-cleavage is 0.54. The same measure for G4U C11A: 0.502; for C15U A23C: 0.36. The same measure for G33C A37G: 0.619; for C11A A23C: 0.491; for U12A G17U: 0.827. For C11A C16U the value was 0.985; for G25C G27U, 0.294. As to G27C A42U, the self-cleavage amounted to 0.313. For C15A A40G the value was 0.415; for U9C A23U, 0.358.

As to G4U G39C, the self-cleavage is 0.266. For G8C U14A the value was 1.08; for A1U G5U, 0.354. The same measure for C20G G39C: 0.321; for C16G G22C: 0.284; for G27A G35C: 0.438. The same measure for U12G A34G: 0.909; for G25C C29G: 0.334.

U28G A42C: the self-cleavage came to 0.24.

G33U C43U: the self-cleavage is 0.598. In the case of U7C C15G, the self-cleavage is 0.667.

Turning to G18C A41C, the self-cleavage was found to be 0.303.

In the case of C29U G36A, the self-cleavage was 0.722. For U12G A44G the value was 1.57. Consider C2G C38G, for which the self-cleavage is 0.317. The same measure for A41G A42U: 0.335. For G18A A34G the value was 0.562; for G5A U21C, 0.977. The same measure for G27U C38G: 0.597.
